Consider 36 sequences from a protein production outcome set (Wang et al. 2014).
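Also: failed if final PepcDB status was selected cloned or expressed and not failed if soluble or beyond.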

This data set can be described thus: label from the status in PepcDB records.
With “DRFPVTPVSREDLAGVLEAVERLRHWRPAAAGAWAVDYRGMLEGVHAQGVFDDGHWADLLRLLELSGAPREFGHGDLVLANVVRSRGRQVLIDWASSALYLPGLDLAQLWMLLGDVPGARARIEVEVADRADDRDGMMPFLVNLTLLLYRERRAHRRF”, the protein production entry is on record as “failed”.

Take “DVLSSSNFILPDGIGVVMMSRLTNNRLQSRIAGYDVFKELLGVANKKKKRIFLYGAKKDVIKGVVSKISSEYPNIKIAGYSDGYVQDRTLVAKQIARANPDMVFVALGYPHQEKFIHNYRHLFPKAVSIGLGGSFDVFSGNVKRAPSWMIRLNLEWFYRLILNPWRWKRM”: the protein production entry is reported as “not failed”.

Take “DVREFQPENFARFHPGGSLGRRLLSKVQDEMFSDNIPSVASDADFTSIIHKISSSHLGLTLVNLKDDSLAIITDGDLRRAMESKGRDAFDLVAKDIASINPASISPESNIQKAYEIMESKGITSLIVVESNSVVGIL”: the protein production result was “failed”.

With “DYIEGVIADISDVYDELRLRKQAEVALQASEAELRSLFSAIPDPLCVVTAQGRVIETVAGNPRQLYSSVEEKVGKTLHQIFEEEQADKFMGYIQQVLRTQQVLTVEYSLQIDGRETWFSARIAPIRHE”, the protein production entry was “failed”.

Take “EADMLFSVTVPGSTANLGPGFDSVGMALSRYLKLTVFESDKWSFEAETETVAGIPAGTDNLIYQVAKRTADLYGKEMPPVHVKVWSDIPLARGLGSSAAAIVAAIELADELCGLKLSEADKLHLASLEEGHPDNAGASLVGGLVIGLHEDDETQM”: the protein production result was “failed”.

Consider “ECSQDCATCSYRLVRPADINFLACVMECEGKLPSLKIWETCKELLQLSKPELPQDGTSTLRENSKPEESHLLAKRYGGFMKRYGGFMKKMDELYPMEPEE”, for which the protein production entry is listed as “failed”.

Take “EDFRPVVFVHGLAGSAGQFESQGMRFAANGYPAEYVKTFEYDTISWALVVETDMLFSGLGSEFGLNISQIIDPETLDKILSKSRERLIDETFSRLDRVIDEALAESGADKVDLVGHSMGTFFLVRYVNSSPERAAKVAHLILLDGVWGVDAPEGIPTLAVFGNPKALPALGLPEEKVVYNATNVYFNNMTHVQLCTSPETFAVMFEFINGYKPATT”: the protein production result is listed as “not failed”.

Consider “EDPFQPEIKVRCVCGNSLETDSMIQVIWDELTAFIPCEDPRCHVWQHVGCVILPDKPMDGNPPLPESFYCEICRLT”, for which the protein production result is “not failed”.

As for “EDPGDAQVVFARLDAYIRRHLQSEIEVAALAEQAHMSTRSLYALFERQLGESPRQYIRRLRLERIRACLEDPGCRVRNLTELALDFGFAHLGRFAEQYRRQFGELPSETLRRRA”, the protein production entry is given as “failed”.

Consider “EDVKEFEREETQDKEESVESSLPLNAIEPCVICQGRPKNGCIVHGKTGHLMACFTCAKKLKKRNKPCPVCRQPIQMIVLTYFP”, for which the protein production result was “failed”.

Consider “EEAGRSATEIARAVAAVSAPIDLVAAGAAIDSGVNRLIYTRHFLRTMIPNALAKWQQHPGLFDRELVQRATTLREFDDAFTAPLHGFTGVDDYWTRASSKPHLHKITIPALVVNARNDPFVPAVSLPTQDEVGEMVTLWQPDEGGHVGFATGPWPGRIAAMPEAVSDWLGAV”, for which the protein production entry was “failed”.

“EEKPCGFPHVENGRIAQYYYTFKSFYFPMSIDKKLSFFCLAGYTTESGRQEEQTTCTTEGWSPEPRCFKKCTKPDLSNGYISDVK”: the protein production entry is given as “failed”.

Consider “EEMEKGFDPKRYARELWFKLQDMMNEGLGYDAVEVLNTLDENPELAHQKFAKVVGVSNYRYYIIQGVGEIVEIKDDGILVKVRENRKVPDLFLSNHIFGNGIVNATGIAKMEDFDRIIDFNLTATELNKIVKEEVVNSFLKQLSKGAGSVGSLVRFIAVFTLLKDEEIKYPIEAIPLYLEIQGGF”, for which the protein production entry was “not failed”.

As to “EGAGDALTTVAERARLLADACAGVILHPTAEGGMAIVTASTPDDPDGMVGATIEPGSPVLEQLLGGEPVFVDDSATDPRMTTHVRHRFGPSMMLPLQAGGRLIGTLALPRRRGGRPYTDLERLLATQFASQAALALVLADARRGRELLAVYEDRDRIARDLHDLVV”, the protein production result is “failed”.

As for “EGLNICKKIMVISDKNDAISEFIIKELERGCTIIDGKGGYTGKDTYILYTVLNRKEFIRLRIFIKETDPNAFITISDAKEVLGEGFKEI”, the protein production entry was “not failed”.

Regarding “EHIARRKAGDAAERLVKLIPAFCHHMPDYPDTQETCEAAVVKLKAGDIVLVKPGETIPVDGTVLEGSSAVNESMLTGESLPVAKMPSEKVTAGTLNTQSPLIIRTDRTGGGTRLSHIVRLLDRALAQKPRTAELAEQ”, the protein production result is recorded as “failed”.

For the sequence “EIKIGITMSASGPGAALGQPQSKTVAALPKEIGGEKVTYFALDDESDPTKAAQNARKLLSEEKVDVLIGSSLTPVSLPLIDIAAEAKTPLMTMAAAAILVAPMDERRKWVYKVVPNDDIMAEAIGKYIAKTGAKKVGYIGFSDAYGEGYYKVLAAAAPKLGFELTTHEVYARSDASVTGQVLKIIATKPDAVFIASAGTPAVLPQKALRERGFKGAIYQTHGVATEEFIKLGGKDVEGAIFAGEAFSGAEDMPADSPFRKVKARFVDAYKAANGGAAPTIFGVHLWDSMTLVENAIPAALKAAKPGTPEFRAAIRDQIEKSKDLALNNGLSNMTPDNHNGYDERSAFLIEIRDGAFRLKQ”, the protein production entry is “not failed”.

Take “EKAEDCWELQISPELLAHGRQKILDLLNEGSARDLRSLQRIGPKKAQLIVGWRELHGPFSQVEDLERVEGITGKQMESFLKANILGLAAGQ”: the protein production result is given as “not failed”.

With “EKDTIAAEHKQEASVLLNLHRNKINYLIGETMARMTSLSIAIDRPVDIKKMQSILEKTFDSEPRFSGLYFLNAKGDVTASTTELKTKVNLADRSFFIKAKETKKTVISDSYSSRITGQPIFTICVPVLDSKRNVTDYLVAAIQIDYLKNLINLLSPDVYIEVVNQDGKMIFASGQASHAEDQKPVSGYLDDISWNMKVYPNPVTIEELSKS”, the protein production entry was “failed”.

As to “EKEKDTIAAEHKQEASVLLNLHRNKINYLIGETMARMTSLSIAIDRPVDIKKMQSILEKTFDSEPRFSGLYFLNAKGDVTASTTELKTKVNLADRSFFIKAKETKKTVISDSYSSRITGQPIFTICVPVLDSKRNVTDYLVAAIQIDYLKNLINLLSPDVYIEVVNQDGKMIFASGQASHAEDQKPVSGYLDDISWNMKVYPNPVTIEELSKSL”, the protein production result is listed as “not failed”.

Regarding “EKVDLQYAAYEPKKLQSGNKNPLIIWLHGQGEGGTDPDITLLGNKVTALIKEDIQNHFKSGNQKGTYVLTVQAPTYWMDEGDGSNGQGAGTSRYTEVLMDAIKKYVAKIT”, the protein production entry is recorded as “failed”.

As to “ELAWLVDCLAPIFDGLRQPVTVVDPSGRFVYYNRASGLLDGLDPQRALGMHLLQSAPWLAAEQSTLLRCLAEGRPSIDTLQAYVGAGGELLQYRHRAIPLRGRDGCLLGAMEL”, the protein production result is reported as “failed”.

Take “EMRLEKDRFSVNLDVKHFSPEELKVKVLGDVIEVHGKHEERQDEHGFISREFHRKYRIPADVDPLTITSSLSSDGVLTVNGPRKQVSGPERTIPIT”: the protein production entry is on record as “failed”.

Turning to “EMTLVTLRSNDQFNTTIYGFSDRLRGLEGPRNVLLMNPEEIARHGLHEGQRVTLECAWSDGVDRRVSGLRVTAYDLPDSCVGAYYPETNPLVPLAARDELSGTPAYKGTPVRVRAEGSAAPL”, the protein production entry was “failed”.

In the case of “EPEQVIRKYTEELKVAPEEDCIICMEKLAVASGYSDMTDSKALGPMVVGRLTKCSHAFHLLCLLAMYCNGNKDGSLQCPSCKTIYGEKTGTQPWGKMEVFR”, the protein production entry is given as “not failed”.

For the sequence “EQVQRFGDLDVHYNVFNSSFLQPNVASAVGLVRSKAQGVINVVPMEKGKPVEAAVTGSAKDLTGKVIPLEFRRVSEEGAIYNLAQFPISQRETLVFTIKVEAKGEPAQTFSFNKEIFPDE”, the protein production entry is “not failed”.

On to “ERREKKNKIMQAKEDFKKMMEEAKFNPRATFSEFAAKHAKDSRFKAIEKMKDREALFNEFVAAARKKEKE”, for which the protein production entry is “not failed”.

With “ETTMPASRSLVDKPVHRFEIIPWNGKKVGYLMYNEFKAGPTTDSQAYNDDLRRAFRDFQTGGVNEFVLDLRYNTGGSLDCAQLLCTMLAPADKMNQLLALLRYSDKRVEANQDLTFNPELIQSGANLNLSTVYVLTTNATRGAAEMVINCLNPYMKVVLIGTKTAGEYVATKPFVHPTDRFILNLVVCNVYNAEEKSDYATGFKPTYEYNEDSYLSTYLPFGNTNETLLNAALKIMSGITDK”, the protein production result is given as “failed”.

“EVILGDGIFPLTALAVGKDDRAFAVIRTAGGQAPHPDVDFPELSSTGLLLSSLKPADRALLPEGTPDREVSIDLGGQMMPYEWRILTDGQSSSATVQEGQRLRMVMRNRTMMPHPMHIHGHTWALPGSGGLRKDTVLLRHGETMIADLIADNPGEWAFHCHNAYHMETGMLSSLRYE”: the protein production result is recorded as “failed”.

With “EVKEEDAFYSKKCKLFYKKDNEFKEKGIGTLHLKPTANQKTQLLVRADTNLGNILLNVLIPPNMPCTRTGKNNVLIVCVPNPPIDEKNATMPVTMLIRVKTSEDADELHKILLEKKDA”, the protein production entry is listed as “not failed”.

Take “EVLLETLNATELNETTASLAVHQTMKENGQLFVSNSMAIRYLDRFMDSRPYRMFGNRGINGIDGIVSTALGMSAIAPTQQNVLLIGDLALYHDMNGLFLAKRYQLPLTIVLLNNNGGGIFSFLSQRTLREDDFEPLFGTPLDLDFSLVAELYGASYQEVKTIAELKQILQAAAEEPQFQVIEVKGNRQEN”: the protein production entry is reported as “not failed”.

For the sequence “EVLPDGVINVLGASNCPSKGIDRGGVIDLDAAVNSIQRAIEQAESVSNCQIMGVTLAISGQHITALNESGVIPLSGTVVRKEDIDAAIHIAHSIKLPDG”, the protein production result is “failed”.

Take “EVNAAMNDGVICDMFEGHTPFKPRYVLPDYARYLQQGSEYLELSPAQDLDEALNALTILYHHVPSVTNIPVYLGQLDDILMPFVEGMDADALYRKLKLFWIMLDRTLPDAFMHVNLGPTDNIVCRTLLRIDAELKQVAPNLTFMYDPAVTPDELLQIATTNICQCSKPHIANYPQHASAFDACGFGIVSCYNALPLAGGANTLVRLNLKEVALKATSINDFFERVLPYYCSLTFELIEARSAFLHQESHFFDSFLVKEQLIDESRFAPMFGIYGMAEAVNILQAQMTSETDKSSQSNKPTGYGHSMDANQLGYRISAALDTIVKSTPVTYGYHGRALLHSQGGISLDKGVTPGVRIPYGTEPNPIAHIQALAQHHQYYTAGISDILTIDETVKSNPQAMFQLCKAALELGFREFTANVASNDLMRVTGYMVKRSDIEAFKQ”: the protein production entry was “failed”.

“EVPDLPEEPSETAEEVVTVALRCPNGRVLRRRFFKSWNSQVLLDWMMKVGYHKSLYRLSTSFPRRALEVEGGSSLEDIGITVDTVLNVEEKEQSSQ”: the protein production result is “not failed”.

“EVTGSVSLEALEEVQVGENLEVGVGIDELVNAEAFAYDFTLNYDENAFEYVEAISDDGVFVNAKKIEDGKVRVLVSSLTGEPLPAKEVLAKVVLRAEAKAEGSNLSVTNSSVGDGEGLVHEIAGTEKTVNIIE”: the protein production result was “not failed”.

As to “FAFVYEAQDVGSGREYALKRLLSNEEEKNRAIIQEVCFMKKLSGHPNIVQFCSAASIGKEESDTGQAEFLLLTELCKGQLVEFLKKMESRGPLSCDTVLKIFYQTCRAVQHMHRQKPPIIHRDLKVENLLLSNQGTIKLCDFGSATTISHYPDYSWSAQRRALVEEEITRNTTPMYRTPEIIDLYSNFPIGEKQDIWALGCILYLLCFRQHPFEDGAKLRIVNGKYSIPPHDTQYTVFHSLIRAMLQVNPEERLSIAEVVHQLQEIAAARNVNPKSPITELLEQNGGYGSAT”, the protein production result was “failed”.
